Assay: soluble on expression in E. coli; label from the status in PepcDB or PDB records

Soluble on expression in E. coli, not soluble:
MGSDKIHHHHHHEEGTSPINENTSNLPVSATADAQLKFAKLLSQAASGSIEVRNFLKKEALVQFDNDYDIFYPLIKDKKVFGNQSFRDILLSYCKEENELSQIEQSLPLLNIMVPDLTLFWDFNATTWDTSDKEISVLCRDDKNNTLYENGENIGNMTNGDIPGFPCLVVKNNERMKITSVNTRSGEATYEFISDAFDGSKKVQTRHYDADNDLEATEDLNKYVSKDVVATAINAWREFKNVPNACQRDYIYYGINKTNTPGSLNRNIREKLYRFRISATAFGRIADADGDQRLQDLTQTKRYLSNEEILQNIWTDGNFEFRFKSYIAGETNKDAMEHLLTFSVKAKDVFSIEKIHLHHKNGTAFRQSKNFYSVDINNLRSKWIYPEKLEPNKDNQVFTLPWDLYNKALSIHMYVEEFDVDQTIEKTITVVNEFTNKADFSIEGGGSIDSVKLSAKLGYGFSHTNTTTSSTKVTTTVGSDELGTLSFFFYDPIIRAESNNTYKLYDVSSGDVTATILPINLIITR
MGGSLGLALQEWGRFKSVIGYDHNALHAKLALTLGLVDECVGFEKILECDVIFLAIPVEGIIGCLKKMTSIKKSATIIDLGGAKAQIIRNIPKSIRKNFIAAHPMCGTEFYGPKASVKGLYENALVILCDLEDSGTEQVEIAKEIFLGVKARLIKMKSNEHDTHVAYISHLPHVLSYALANSVLKQNDPEMILSLAGGGFRDMSRLSKSSPLMWKDIFKQNRDNVLEAIKKCEKEIVQAKAWIENNDYESLAEWMAQANKLQEFMLEHHHHHH
MYQSYPQQQQPGYQPQQPSHPIVGAGAAPTMAPQNPYGQQPFQPQFQQGQYQQPSGQQYQSMQQQFQSPQQQAPTQPTHPDRESYQTALPANVTPGWNDPPSMLPSAGTTPNRLSNMRRRPVDPSISGNVGYGTSSQTSNPYGASASPYGAPQQNPQQYQEQPQSYQTYQQPQQQQPQYGQQQNPQQFGQQYPGAGAPHQQQHYGM

Soluble on expression in E. coli, soluble:
AIANSLVRRSAQQLSLWRTYCIKHNASEAASPGRNAGRPNYEEFIGRHQRQAQCSIVVQVSSEKSYEELYNYCSSFGSIMGAHHYCVRQDETLHYILLEYATSDEAAAAIGAGVTNGELSGVPVRSPFLWFRAAGGGRRSPKLVANTAPALLSLDGTRQVDQRHLLGLLRGAADIEEQVQQLYEHTRLNELGIRMRFLAALQVQQAIAGMFPAAQAQPFGSSVNGFGRMGCDLDLILRFDSDMGAKIPLEAAVPSRLVYHTKENLSNGRSQTQRHMECFGDMLHLFLPGVCHVRRILQARVPIIKYHHEHLDLEVDLSMSNLTGFYMSELLYMFGEMDPRVRPLTFTIRRWAQTCGLTNPSPGRWISNFSLTCLVMFFLQQLRQPILPTIGALAKAAEPGDSRVTEDGINCTFTRNVDRLGFRSRNQSSLSELLLQFFEFYSQFDFHNRAISLNEGKPLSKPDHSAMYIVNPLEQLLNVSKNVSLEECERLRIEVRNAAWVLESEVENASVPEGDGQELSCGLLNLFKHPEKAVIRPNMFFKPRMVEVSDLFEQKEAGATSSSTPPTPAITYKSASVRQQVQSIKAATRSELKQLRGSGSSVPTSSPNNRRRS
MSLAMEHVDVLIVGAGLSGIGAAYHLQKHCPGKTYAILEGREAIGGTWDLFRYPGIRSDSDMYTLGYSFKPWKAAKAIADGPSILDYVRETAREHDIDRHIRFQHLVKRASWSSETATWTVEAEHDGKPVTLTCRFLHMCSGYYRYSAGYTPDFAGTERFKGRIVHPQHWPEDLDYSGKKVVVIGSGATAVTLVPEMAKTAAHVTMLQRSPTYVVSRPAEDGIANWLRSKLPAMTAYGITRWKNVLFQLFFFNLARKKPEKVKERLLGMVRDHLGPGYDVETHFTPRYNPWDQRLCLVPDADLFDAIKSGAASVVTDHIETFTETGIQLKSGKTLDADVIVTATGLQLQLLSGMEVVVDGKVADLSQSMSYKGMMFSDVPNLASVFGYTNASWTLKADLTSEYVCRLLNHMDRTGADYCVPRLDGEVEAAPWLDFSSGYITRSIGHFPKQGTRKPWKVHQNYALDLMTLRMGKVEDGVMQFGRKTGATAKAKPEKALEPAEGHHHHHH
MSLQKITVPTWAEINLDNLRFNLNNIKNLLEEDIKICGVIKADAYGHGAVEVAKLLEKEKVDYLAVARTAEGIELRQNGITLPILNLGYTPDEAFEDSIKNKITMTVYSLETAQKINEIAKSLGEKACVHVKIDSGMTRIGFQPNEESVQEIIELNKLEYIDLEGMFTHFATADEVSKEYTYKQANNYKFMSDKLDEAGVKIAIKHVSNSAAIMDCPDLRLNMVRAGIILYGHYPSDDVFKDRLELRPAMKLKSKIGHIKQVEPGVGISYGLKYTTTGKETIATVPIGYADGFTRIQKNPKVLIKGEVFDVVGRICMDQIMVRIDKDIDIKVGDEVILFGEGEVTAERIAKDLGTINYEVLCMISRRVDRVYMENNELVQINSYLLKEGHHHHHH

— the DeepSol protein solubility set
